This passage reports self-cleavage results from the RNAGym collection of RNA variant scans (doi:10.7554/elife.90254).

B1: LINE1-mini (parent)
chain: GGCAGAGCUCAACACAGCGUGGCAAAGUGGCUGUGGCUAGACUGCC

This data set covers variants of B1. The data set is described as follows: self-cleavage, relative activity (ratio to wild type); higher = more cleavage; in vitro, sequencing; the parent is a self-cleaving ribozyme.
For GGCAAAGCUCAACACAGCGUGGCAAAGUGGCUCUGGCUAGACUGCC [G5A G33C], the self-cleavage worked out at 0.09.
Next, GGCAAAGCUCAACACAGCGUGGCAAAGUGGCUAUGGCUAGACUGCC [G5A G33A]: 0.1.
Under GGCAAAGCUCAACACAGCGUGGCAAAGUGGCUUUGGCUAGACUGCC [G5A G33U] stands 0.05; under GGCAAAGCUCAACACAGCGUGGCAAAGUGGCUGUGGCUAAACUGCC [G5A G40A], 0.11.
Under GGCAAAGCUCAACACAGCGUGGCAAAGUGGCUGUGGCUAUACUGCC [G5A G40U] stands 0.1; under GGCAAAGCUCAACACAGCGUGGCAAAGUGGCUGUGGCUACACUGCC [G5A G40C], 0.04; under GGCAAAGCUCAACACAGCGUGGCAAAGUGGCUGUGGCUAGACUGCU [G5A C46U], 0.12.
As for GGCAAAGCUCAACACAGCGUGGCAAAGUGGCUGUGGCUAGACUGCA [G5A C46A], the self-cleavage came out at 0.11.
Next, GGCAAAGCUCAACACAGCGUGGCAAAGUGGCUGUGGCUAGACUGCG [G5A C46G]: 0.16.
Under GGCAAAGCUCAACACAGCGUGGCAAAGUGGCUGUGGCUCGACUGCC [G5A A39C] stands 0.24.
For GGCAAAGCUCAACACAGCGUGGCAAAGUGGCUGUGGCUUGACUGCC [G5A A39U], the self-cleavage stood at 0.1.
Under GGCAAAGCUCAACACAGCGUGGCAAAGUGGCUGUGGCUGGACUGCC [G5A A39G] stands 0.08.
For the variant GGCUGAGCUCAACACAGCGUGGCAAAGUGGCUGUGGCAAGACUGCC [A4U U38A], the self-cleavage came to 0.12.
On to GGCUGAGCUCAACACAGCGUGGCAAAGUGGCUGUGGCCAGACUGCC [A4U U38C], for which the self-cleavage was 0.17.
For GGCUGAGCUCAACACAGCGUGGCAAAGUGGCUGUGGCGAGACUGCC [A4U U38G], the self-cleavage came to 0.03.
Next, GGCAAAGCUCAACACAGCGUGGCAAAGUGCCUGUGGCUAGACUGCC [G5A G30C]: 0.12; GGCAAAGCUCAACACAGCGUGGCAAAGUGUCUGUGGCUAGACUGCC [G5A G30U]: 0.19; GGCAAAGCUCAACACAGCGUGGCAAAGUGACUGUGGCUAGACUGCC [G5A G30A]: 0.22.
Next, GGCAAAGCUCAACACAGCGUGGCAAAGUGGCUGUGGCUAGAGUGCC [G5A C42G]: 0.07; GGCAAAGCUCAACACAGCGUGGCAAAGUGGCUGUGGCUAGAAUGCC [G5A C42A]: 0.13; GGCAAAGCUCAACACAGCGUGGCAAAGUGGCUGUGGCUAGAUUGCC [G5A C42U]: 1.53.
Next, GGCAAAGCUCAACACAGCGUGGCAAAGUGGCUGUGGCUAGACUGGC [G5A C45G]: 0.14; GGCAAAGCUCAACACAGCGUGGCAAAGUGGCUGUGGCUAGACUGUC [G5A C45U]: 0.12.
On to GGCAAAGCUCAACACAGCGUGGCAAAGUGGCUGUGGCUAGACUGAC [G5A C45A], for which the self-cleavage came to 0.22.
Under GGCUGAGCUCAACACAGCGUGGCAAAGUGGCUGUGGCUAGACGGCC [A4U U43G] stands 0.06; under GGCUGAGCUCAACACAGCGUGGCAAAGUGGCUGUGGCUAGACAGCC [A4U U43A], 0.67; under GGCUGAGCUCAACACAGCGUGGCAAAGUGGCUGUGGCUAGACCGCC [A4U U43C], 0.03.
In the case of GGCAAAGCUCAAUACAGCGUGGCAAAGUGGCUGUGGCUAGACUGCC [G5A C13U], the self-cleavage came to 0.15.
Under GGCAAAGCUCAAGACAGCGUGGCAAAGUGGCUGUGGCUAGACUGCC [G5A C13G] stands 0.08; under GGCAAAGCUCAAAACAGCGUGGCAAAGUGGCUGUGGCUAGACUGCC [G5A C13A], 0.15; under GGCAAAGCUUAACACAGCGUGGCAAAGUGGCUGUGGCUAGACUGCC [G5A C10U], 0.09.
Under GGCAAAGCUGAACACAGCGUGGCAAAGUGGCUGUGGCUAGACUGCC [G5A C10G] stands 0.03; under GGCAAAGCUAAACACAGCGUGGCAAAGUGGCUGUGGCUAGACUGCC [G5A C10A], 0.04; under GGCAAAGCUCAACACUGCGUGGCAAAGUGGCUGUGGCUAGACUGCC [G5A A16U], 0.07.
In the case of GGCAAAGCUCAACACCGCGUGGCAAAGUGGCUGUGGCUAGACUGCC [G5A A16C], the self-cleavage was found to be 0.1.
Next, GGCAAAGCUCAACACGGCGUGGCAAAGUGGCUGUGGCUAGACUGCC [G5A A16G]: 0.07.
Under GGCAAAGCUCAACACAGCGUGGCAAAGUGGCUGUGGCUAGACUGCC [G5A] stands 0.16; under GGCUGAGCUCAACACAGCGUGGCAAAGUGGCGGUGGCUAGACUGCC [A4U U32G], 0.14; under GGCUGAGCUCAACACAGCGUGGCAAAGUGGCAGUGGCUAGACUGCC [A4U U32A], 0.06.
Under GGCUGAGCUCAACACAGCGUGGCAAAGUGGCCGUGGCUAGACUGCC [A4U U32C] stands 0.14; under GGCAAAGCUCAACACAGCGUGGCUAAGUGGCUGUGGCUAGACUGCC [G5A A24U], 0.11.
For GGCAAAGCUCAACACAGCGUGGCCAAGUGGCUGUGGCUAGACUGCC [G5A A24C], the self-cleavage amounted to 0.08.
Under GGCAAAGCUCAACACAGCGUGGCGAAGUGGCUGUGGCUAGACUGCC [G5A A24G] stands 0.23.
Next, GGCAAAGCUCAACACACCGUGGCAAAGUGGCUGUGGCUAGACUGCC [G5A G17C]: 0.39; GGCAAAGCUCAACACAUCGUGGCAAAGUGGCUGUGGCUAGACUGCC [G5A G17U]: 0.11.
For GGCAAAGCUCAACACAACGUGGCAAAGUGGCUGUGGCUAGACUGCC [G5A G17A], the self-cleavage was 0.08.
Next, GGCAAAUCUCAACACAGCGUGGCAAAGUGGCUGUGGCUAGACUGCC [G5A G7U]: 0.26.
Under GGCAAAACUCAACACAGCGUGGCAAAGUGGCUGUGGCUAGACUGCC [G5A G7A] stands 0.35; under GGCAAACCUCAACACAGCGUGGCAAAGUGGCUGUGGCUAGACUGCC [G5A G7C], 0.23.
Next, GGCAAAGCUCAACACAGCGUUGCAAAGUGGCUGUGGCUAGACUGCC [G5A G21U]: 0.14; GGCAAAGCUCAACACAGCGUAGCAAAGUGGCUGUGGCUAGACUGCC [G5A G21A]: 0.25.
For GGCAAAGCUCAACACAGCGUCGCAAAGUGGCUGUGGCUAGACUGCC [G5A G21C], the self-cleavage came out at 0.13.
Under GGCAAAGCUCAACACAGCGUGGCAAAGUGGCUGUGGUUAGACUGCC [G5A C37U] stands 0.13; under GGCAAAGCUCAACACAGCGUGGCAAAGUGGCUGUGGAUAGACUGCC [G5A C37A], 0.06.
Next, GGCAAAGCUCAACACAGCGUGGCAAAGUGGCUGUGGGUAGACUGCC [G5A C37G]: 0.05; GGCAAAGCUCAACACAGCGUGGCAAAGUGGCUGUAGCUAGACUGCC [G5A G35A]: 0.1.
